The values below come from patent US20240026017A1 (Kyowa Kirin, published 2024).

T1: human CC chemokine receptor 1 (human CCR1) (human, UniProt P32246 1-355)
T1 construct: endogenous on THP-1 cells in the migration assays; also called hCCR1; CHO-S-hCCR1 (expressing cells)
T1 sequence: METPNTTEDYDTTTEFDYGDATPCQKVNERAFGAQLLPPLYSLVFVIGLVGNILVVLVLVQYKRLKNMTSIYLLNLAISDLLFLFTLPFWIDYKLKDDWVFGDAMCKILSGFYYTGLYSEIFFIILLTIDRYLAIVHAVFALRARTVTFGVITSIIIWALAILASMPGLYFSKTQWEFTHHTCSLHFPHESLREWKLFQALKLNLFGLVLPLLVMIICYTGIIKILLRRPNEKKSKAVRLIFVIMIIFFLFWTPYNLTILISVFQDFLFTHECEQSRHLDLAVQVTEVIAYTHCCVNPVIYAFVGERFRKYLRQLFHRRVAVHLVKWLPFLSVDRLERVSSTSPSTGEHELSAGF

B1: chKM5908′ mut05 (antibody, V domains shown)
VH: QVQLKQSGPGLVQPSQSLSITCTVSGFSLNNYGVHWVRQPPGKGLEWLGVTWSAGTTVYNAAFISRLSISKDDSKSQVFFKMNSLQAGDTAIYYCAKDGSRYYTAMDYWGQGTSVTVSS
VL: DVVMTQTPLSLPVSLGDQASIFCRSSQSLVHRNGITFFHWYLQKPGQSPKLLIYKVSNRFSGVPDRFSGSGSGTDFTLKISRVAPDDLGVYFCSQGTHVPPTFGGGTKLEIK
B2: chKM5908′ mut09 (antibody, V domains shown)
VH: QVQLKQSGPGLVQPSQSLSITCTVSGFSLNNYGVHWVRQPPGKGLEWLGVIWSAGTTVYNAAFISRLSISKDDSKSQVFFKMNSLQAGDTAIYYCAKDGSRAYTAMDYWGQGTSVTVSS
VL: DVVMTQTPLSLPVSLGDQASIFCRSSQSLVHRNGITFFHWYLQKPGQSPKLLIYKVSNRFSGVPDRFSGSGSGTDFTLKISRVAPDDLGVYFCSQGTHVPPTFGGGTKLEIK
B3: chKM5908′ mut15 (antibody, V domains shown)
VH: QVQLKQSGPGLVQPSQSLSITCTVSGFSLNNYGVHWVRQPPGKGLEWLGVTWSAGTTVYNAAFISRLSISKDDSKSQVFFKMNSLQAGDTAIYYCAKDGSRAYAAMDYWGQGTSVTVSS
VL: DVVMTQTPLSLPVSLGDQASIFCRSSQSLVHRNGITFFHWYLQKPGQSPKLLIYKVSNRFSGVPDRFSGSGSGTDFTLKISRVAPDDLGVYFCSQGTHVPPTFGGGTKLEIK
B4: chKM5908′ mut04 (antibody, V domains shown)
VH: QVQLKQSGPGLVQPSQSLSITCTVSGFSLNNYGVHWVRQPPGKGLEWLGVIWSAGTTVYNAAFISRLSISKDDSKSQVFFKMNSLQAGDTAIYYCAKDGSRYYTAMDYWGQGTSVTVSS
VL: DVVMTQTPLSLPVSLGDQASIFCRSSQSLVHRNGITFAHWYLQKPGQSPKLLIYKISNRFSGVPDRFSGSGSGTDFTLKISRVAPDDLGVYFCSQGTHVPPTFGGGTKLEIK
B5: chKM5908′ mut08 (antibody, V domains shown)
VH: QVQLKQSGPGLVQPSQSLSITCTVSGFSLNNYGVHWVRQPPGKGLEWLGVIWSAGTTVYNAAFASRLSISKDDSKSQVFFKMNSLQAGDTAIYYCAKDGSRYYTAMDYWGQGTSVTVSS
VL: DVVMTQTPLSLPVSLGDQASIFCRSSQSLVHRNGITFFHWYLQKPGQSPKLLIYKVSNRFSGVPDRFSGSGSGTDFTLKISRVAPDDLGVYFCSQGTHVPPTFGGGTKLEIK
B6: chKM5908′ mut19 (antibody, V domains shown)
VH: QVQLKQSGPGLVQPSQSLSITCTVSGFSLNNYGVHWVRQPPGKGLEWLGVTWSAGTTAYNAAFASRLSISKDDSKSQVFFKMNSLQAGDTAIYYCAKDGSRYYTAMDYWGQGTSVTVSS
VL: DVVMTQTPLSLPVSLGDQASIFCRSSQSLVHRNGITFAHWYLQKPGQSPKLLIYKVSNRFSGVPDRFSGSGSGTDFTLKISRVAPDDLGVYFCSQGTHVPPTFGGGTKLEIK
B7: chKM5908′ mut21 (antibody, V domains shown)
VH: QVQLKQSGPGLVQPSQSLSITCTVSGFSLNNYGVHWVRQPPGKGLEWLGVTWSAGTTVYNAAFISRLSISKDDSKSQVFFKMNSLQAGDTAIYYCAKDGSRYYTAMDYWGQGTSVTVSS
VL: DVVMTQTPLSLPVSLGDQASIFCRSSQSLVHRNGITFFHWYLQKPGQSPKLLIYKISNRFSGVPDRFSGSGSGTDFTLKISRVAPDDLGVYFCSQGTHVPPTFGGGTKLEIK
B8: chKM5908′ mut18 (antibody, V domains shown)
VH: QVQLKQSGPGLVQPSQSLSITCTVSGFSLNNYGVHWVRQPPGKGLEWLGVIWSAGTTVYNAAAISRLSISKDDSKSQVFFKMNSLQAGDTAIYYCAKDGSRYYTAMDYWGQGTSVTVSS
VL: DVVMTQTPLSLPVSLGDQASIFCRSSQSLVHRNGITFAHWYLQKPGQSPKLLIYKVSNRFSGVPDRFSGSGSGTDFTLKISRVAPDDLGVYFCSQGTHVPPTFGGGTKLEIK
B9: chKM5908′ mut10 (antibody, V domains shown)
VH: QVQLKQSGPGLVQPSQSLSITCTVSGFSLNNYGVHWVRQPPGKGLEWLGVIWSAGTTVYNAAFISRLSISKDDSKSQVFFKMNSLQAGDTAIYYCAKDGSRYYAAMDYWGQGTSVTVSS
VL: DVVMTQTPLSLPVSLGDQASIFCRSSQSLVHRNGITFFHWYLQKPGQSPKLLIYKVSNRFSGVPDRFSGSGSGTDFTLKISRVAPDDLGVYFCSQGTHVPPTFGGGTKLEIK
B10: chKM5908′ mut17 (antibody, V domains shown)
VH: QVQLKQSGPGLVQPSQSLSITCTVSGFSLNNYGVHWVRQPPGKGLEWLGVTWSAGTTVYNAAFISRLSISKDDSKSQVFFKMNSLQAGDTAIYYCAKDGSRYYTAMDYWGQGTSVTVSS
VL: DVVMTQTPLSLPVSLGDQASIFCRSSQSLVHRNGITFAHWYLQKPGQSPKLLIYKVSNRFSGVPDRFSGSGSGTDFTLKISRVAPDDLGVYFCSQGTHVPPTFGGGTKLEIK
B11: chKM5908′ mut07 (antibody, V domains shown)
VH: QVQLKQSGPGLVQPSQSLSITCTVSGFSLNNYGVHWVRQPPGKGLEWLGVIWSAGTTVYNAAAISRLSISKDDSKSQVFFKMNSLQAGDTAIYYCAKDGSRYYTAMDYWGQGTSVTVSS
VL: DVVMTQTPLSLPVSLGDQASIFCRSSQSLVHRNGITFFHWYLQKPGQSPKLLIYKVSNRFSGVPDRFSGSGSGTDFTLKISRVAPDDLGVYFCSQGTHVPPTFGGGTKLEIK
B12: chKM5908′ mut11 (antibody, V domains shown)
VH: QVQLKQSGPGLVQPSQSLSITCTVSGFSLNNYGVHWVRQPPGKGLEWLGVTWSAGTTAYNAAFASRLSISKDDSKSQVFFKMNSLQAGDTAIYYCAKDGSRYYTAMDYWGQGTSVTVSS
VL: DVVMTQTPLSLPVSLGDQASIFCRSSQSLVHRNGITFFHWYLQKPGQSPKLLIYKVSNRFSGVPDRFSGSGSGTDFTLKISRVAPDDLGVYFCSQGTHVPPTFGGGTKLEIK
B13: chKM5908′ mut14 (antibody, V domains shown)
VH: QVQLKQSGPGLVQPSQSLSITCTVSGFSLNNYGVHWVRQPPGKGLEWLGVTWSAGTTVYNAAFASRLSISKDDSKSQVFFKMNSLQAGDTAIYYCAKDGSRYYTAMDYWGQGTSVTVSS
VL: DVVMTQTPLSLPVSLGDQASIFCRSSQSLVHRNGITFFHWYLQKPGQSPKLLIYKVSNRFSGVPDRFSGSGSGTDFTLKISRVAPDDLGVYFCSQGTHVPPTFGGGTKLEIK
B14: chKM5908′ mut06 (antibody, V domains shown)
VH: QVQLKQSGPGLVQPSQSLSITCTVSGFSLNNYGVHWVRQPPGKGLEWLGVIWSAGTTAYNAAFISRLSISKDDSKSQVFFKMNSLQAGDTAIYYCAKDGSRYYTAMDYWGQGTSVTVSS
VL: DVVMTQTPLSLPVSLGDQASIFCRSSQSLVHRNGITFFHWYLQKPGQSPKLLIYKVSNRFSGVPDRFSGSGSGTDFTLKISRVAPDDLGVYFCSQGTHVPPTFGGGTKLEIK
B15: chKM5908′ mut22 (antibody, V domains shown)
VH: QVQLKQSGPGLVQPSQSLSITCTVSGFSLNNYGVHWVRQPPGKGLEWLGVIWSAGTTVYNAAAISRLSISKDDSKSQVFFKMNSLQAGDTAIYYCAKDGSRYYTAMDYWGQGTSVTVSS
VL: DVVMTQTPLSLPVSLGDQASIFCRSSQSLVHRNGITFFHWYLQKPGQSPKLLIYKISNRFSGVPDRFSGSGSGTDFTLKISRVAPDDLGVYFCSQGTHVPPTFGGGTKLEIK
notes: also called mAb5-06; mAb 5-06
B16: chKM5908′ mut20 (antibody, V domains shown)
VH: QVQLKQSGPGLVQPSQSLSITCTVSGFSLNNYGVHWVRQPPGKGLEWLGVTWSAGTTVYNAAFASRLSISKDDSKSQVFFKMNSLQAGDTAIYYCAKDGSRAYAAMDYWGQGTSVTVSS
VL: DVVMTQTPLSLPVSLGDQASIFCRSSQSLVHRNGITFAHWYLQKPGQSPKLLIYKVSNRFSGVPDRFSGSGSGTDFTLKISRVAPDDLGVYFCSQGTHVPPTFGGGTKLEIK
B17: chKM5908′ mut12 (antibody, V domains shown)
VH: QVQLKQSGPGLVQPSQSLSITCTVSGFSLNNYGVHWVRQPPGKGLEWLGVTWSAGTTVYNAAFASRLSISKDDSKSQVFFKMNSLQAGDTAIYYCAKDGSRAYAAMDYWGQGTSVTVSS
VL: DVVMTQTPLSLPVSLGDQASIFCRSSQSLVHRNGITFFHWYLQKPGQSPKLLIYKVSNRFSGVPDRFSGSGSGTDFTLKISRVAPDDLGVYFCSQGTHVPPTFGGGTKLEIK
B18: chKM5908′ mut13 (antibody, V domains shown)
VH: QVQLKQSGPGLVQPSQSLSITCTVSGFSLNNYGVHWVRQPPGKGLEWLGVTWSAGTTVYNAAFASRLSISKDDSKSQVFFKMNSLQAGDTAIYYCAKDGSRYYAAMDYWGQGTSVTVSS
VL: DVVMTQTPLSLPVSLGDQASIFCRSSQSLVHRNGITFFHWYLQKPGQSPKLLIYKVSNRFSGVPDRFSGSGSGTDFTLKISRVAPDDLGVYFCSQGTHVPPTFGGGTKLEIK

For this experiment, the target named is T1, human CC chemokine receptor 1 (human …). Description: flow cytometry on CHO-S-hCCR1 cells; bound = fluorescence 10 times or more that of isotype control chDNP1. As to the method:
The antigen affinity of the chKM5908′ antibody, which is a VL-substituted chimeric antibody, was measured by flow cytometry using the CHO-S-hCCR1 cells produced in Example 2. The cells were collected by centrifugation, the supernatant was removed, and the cells were suspended in PBS (Staining Medium, hereinafter, abbreviated as SM) containing 2% fetal bovine serum (FBS), 0.05% NaN₃, and 1 mM EDTA. Next, the cells were seeded in a 96-well plate so that the number of cells is 1×10⁵ per well, and the chKM5908′ antibody was added at each final concentration of 10,000, 2,000, 400, 80, 16, and 3.2 ng/mL, and the reaction was performed at 4° C. for 60 minutes. After washing the cells with SM, Goat F (ab′)₂ Anti-Human IgG PE (γ chain specific) (Southern Biotech) diluted 500-fold with SM was added and reacted at 4° C. for 60 minutes. After washing the cells with SM, the cells were resuspended in 50 μL of SM, and the fluorescence intensity was measured by the flow cytometry (FACS Canto II, BD Biosciences).
1996 June; 33 (9):759-68, hereinafter, referred to as chDNP1)] were determined to be bound to the human CCR1.
For the molecule B1, the binding result is “binds”.
On to B2, for which the binding result is reported as “binds”.
With B3, the binding result is recorded as “binds”.
As to B4, the binding result is reported as “binds”.
Turning to B5, the binding result was “binds”.
Turning to B6, the binding result is “binds”.
B7: the binding result is on record as “binds”.
Next, B8: “binds”; B9: “binds”; B10: “binds”.
Turning to B11, the binding result is recorded as “binds”.
The entry for B12 is “binds”; for B13 it is “binds”.
Consider B14, for which the binding result is “binds”.
As for B15, the binding result is given as “binds”.
As to B16, the binding result is “binds”.
B17: the binding result is reported as “binds”.
With B18, the binding result was “binds”.
